Laboratory results: patent US20200071404A1 (Astellas, published 2020)

B1: anti-human CD73 antibody CDS-1 (antibody, human IgG1, kappa, L234A L235A)
heavy: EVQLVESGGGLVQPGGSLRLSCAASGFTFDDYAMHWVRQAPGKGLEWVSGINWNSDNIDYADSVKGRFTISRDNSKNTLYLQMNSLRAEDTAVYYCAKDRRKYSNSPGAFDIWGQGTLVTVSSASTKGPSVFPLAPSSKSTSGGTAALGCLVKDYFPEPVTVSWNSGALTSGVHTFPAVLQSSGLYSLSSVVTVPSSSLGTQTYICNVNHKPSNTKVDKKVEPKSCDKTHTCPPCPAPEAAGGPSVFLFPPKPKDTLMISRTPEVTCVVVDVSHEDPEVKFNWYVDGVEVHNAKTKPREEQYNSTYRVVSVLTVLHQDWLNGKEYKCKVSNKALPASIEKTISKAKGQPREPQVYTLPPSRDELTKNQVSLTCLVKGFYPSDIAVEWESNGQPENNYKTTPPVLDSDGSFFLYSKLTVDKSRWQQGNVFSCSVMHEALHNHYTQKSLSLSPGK
light: DIQMTQSPSSLSASVGDRVTITCRASQIIGPWLAWYQQKPGKAPKLLIYRASSLESGVPSRFSGSGSGTDFTLTISSLQPEDFATYYCQQYNSYSPWTFGQGTKVEIKRTVAAPSVFIFPPSDEQLKSGTASVVCLLNNFYPREAKVQWKVDNALQSGNSQESVTEQDSKDSTYSLSSTLTLSKADYEKHKVYACEVTHQGLSSPVTKSFNRGEC
notes: also called purified CDS-1
B2: CDS-3, fused form in which human IL-7 is fused to the C terminal side of the heavy chain of CDS-1 (antibody, human IgG1, kappa, L234A L235A)
heavy: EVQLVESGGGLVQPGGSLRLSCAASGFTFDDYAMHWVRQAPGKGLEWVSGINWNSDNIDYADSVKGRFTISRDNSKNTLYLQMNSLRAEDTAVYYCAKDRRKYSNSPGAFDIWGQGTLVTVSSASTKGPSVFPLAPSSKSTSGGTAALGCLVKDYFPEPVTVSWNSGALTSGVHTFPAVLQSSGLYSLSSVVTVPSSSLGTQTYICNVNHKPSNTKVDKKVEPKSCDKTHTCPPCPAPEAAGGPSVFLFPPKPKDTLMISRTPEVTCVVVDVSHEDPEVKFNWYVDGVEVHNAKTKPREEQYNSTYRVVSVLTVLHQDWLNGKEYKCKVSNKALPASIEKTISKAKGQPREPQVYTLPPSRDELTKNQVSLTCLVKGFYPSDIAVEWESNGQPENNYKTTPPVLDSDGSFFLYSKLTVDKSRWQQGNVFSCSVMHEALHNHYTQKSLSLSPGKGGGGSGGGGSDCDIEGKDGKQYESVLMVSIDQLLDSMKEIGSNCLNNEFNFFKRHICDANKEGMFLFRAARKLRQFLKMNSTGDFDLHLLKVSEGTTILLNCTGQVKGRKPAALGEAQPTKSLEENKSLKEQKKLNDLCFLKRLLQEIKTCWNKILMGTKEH
light: B1 light
notes: also called purified CDS-3
B3: CDS-6, fused form in which human IL-7 variant is fused to the C terminal side of the heavy chain of CDS-1 (antibody, human IgG1, kappa, L234A L235A)
heavy: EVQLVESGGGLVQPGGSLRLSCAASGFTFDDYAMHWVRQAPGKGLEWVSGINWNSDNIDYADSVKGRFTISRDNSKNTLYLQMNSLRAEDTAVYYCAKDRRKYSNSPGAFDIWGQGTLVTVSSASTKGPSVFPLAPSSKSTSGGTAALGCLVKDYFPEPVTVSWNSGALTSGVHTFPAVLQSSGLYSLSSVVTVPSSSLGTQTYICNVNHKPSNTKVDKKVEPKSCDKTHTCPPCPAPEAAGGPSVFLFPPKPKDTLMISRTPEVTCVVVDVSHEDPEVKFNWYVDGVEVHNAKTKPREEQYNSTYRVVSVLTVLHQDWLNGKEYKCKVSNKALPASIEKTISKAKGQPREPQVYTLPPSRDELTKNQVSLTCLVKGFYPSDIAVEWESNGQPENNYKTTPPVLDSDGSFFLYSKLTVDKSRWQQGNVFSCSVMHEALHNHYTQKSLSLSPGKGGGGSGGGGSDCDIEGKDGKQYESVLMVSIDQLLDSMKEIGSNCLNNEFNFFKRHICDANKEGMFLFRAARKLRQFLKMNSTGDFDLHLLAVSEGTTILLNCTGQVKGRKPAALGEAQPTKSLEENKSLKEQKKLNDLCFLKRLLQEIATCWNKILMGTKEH
light: B1 light
notes: also called purified CDS-6

Legend:
[1] = biological target: T1, human CD73 protein (R&D Systems, Inc., 5795) (human, UniProt P21589 27-549); experiment: cell-based or functional assay
T1 sequence (looked up): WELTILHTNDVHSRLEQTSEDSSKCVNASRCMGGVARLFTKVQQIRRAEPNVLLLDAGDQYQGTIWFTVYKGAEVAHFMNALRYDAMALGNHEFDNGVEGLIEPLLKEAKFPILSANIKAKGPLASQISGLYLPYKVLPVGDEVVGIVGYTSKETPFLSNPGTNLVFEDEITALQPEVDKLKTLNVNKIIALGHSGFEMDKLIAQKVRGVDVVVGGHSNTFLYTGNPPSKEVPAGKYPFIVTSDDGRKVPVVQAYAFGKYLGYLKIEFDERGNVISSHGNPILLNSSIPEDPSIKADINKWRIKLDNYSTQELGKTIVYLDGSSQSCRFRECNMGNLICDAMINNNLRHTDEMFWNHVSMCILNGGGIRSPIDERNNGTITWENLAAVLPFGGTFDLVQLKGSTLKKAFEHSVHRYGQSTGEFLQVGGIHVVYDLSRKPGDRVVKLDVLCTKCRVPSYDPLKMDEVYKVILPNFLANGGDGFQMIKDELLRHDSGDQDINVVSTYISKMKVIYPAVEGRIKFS

[2] = biological target: T2, human CD73 expressed on cells (cancer cell line NCI-H1373 endogenously expressing human CD73); human T cell … (human, UniProt P21589 27-549); experiment: cell-based or functional assay
T2 sequence (looked up): T1 sequence (looked up)

[3] = biological target: T2, human CD73 expressed on cells (cancer …); experiment: cell-based or functional assay; remark: listed apart in the source
[4] = biological target: T3, human CD73 protein (BPS Bioscience Inc., 71184) (human, UniProt P21589 27-547, limits assumed); experiment: ELISA, human CD73 protein immobilised on plate, first run
T3 sequence (looked up): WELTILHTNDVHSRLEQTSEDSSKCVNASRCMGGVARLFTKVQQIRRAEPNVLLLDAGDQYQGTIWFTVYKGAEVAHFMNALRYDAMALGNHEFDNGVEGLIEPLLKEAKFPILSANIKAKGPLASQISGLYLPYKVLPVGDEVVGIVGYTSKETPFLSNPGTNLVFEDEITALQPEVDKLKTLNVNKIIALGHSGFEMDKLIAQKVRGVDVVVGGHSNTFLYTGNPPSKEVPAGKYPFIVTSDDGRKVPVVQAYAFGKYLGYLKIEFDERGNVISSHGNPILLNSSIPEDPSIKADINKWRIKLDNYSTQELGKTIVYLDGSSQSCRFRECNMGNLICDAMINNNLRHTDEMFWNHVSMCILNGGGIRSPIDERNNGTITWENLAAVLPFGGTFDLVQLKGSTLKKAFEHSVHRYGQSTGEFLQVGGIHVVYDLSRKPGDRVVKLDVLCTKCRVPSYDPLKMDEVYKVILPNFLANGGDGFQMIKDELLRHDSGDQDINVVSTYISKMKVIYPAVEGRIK
Method: (§1) In order to evaluate the binding activity of CDS-1, CDS-3, CDS-6, CDS-7, and CDS-8 acquired in Example 1 to human CD73, the ELISA was performed using a human CD73 protein. The human CD73 protein (BPS Bioscience Inc., 71184) diluted in PBS (Life Technologies, Inc.) to have a concentration of 4 μg/mL was added to a MaxiSorp 384-well plate Clear (Thermo Fisher Scientific Inc.) by an amount of 20 μL/well, and then immobilized overnight at a temperature of 4° C. The next day, the resultant was washed with a wash solution (0.05% Tween-20 containing Tris-buffered saline (TBS)) once, Blocking One (Nacalai tesque, Inc.) was added thereto in an amount of 100 μL/well, and the resultant was blocked at room temperature for 30 minutes. The resultant was washed with the wash solution once again, and the purified CDS-1, the purified CDS-3, the purified CDS-6, the purified CDS-7, or the purified CDS-8 prepared in Example 1 was added thereto by an amount of 20 μL/well, respectively. […] The values of absorbance at 450 nm and 540 nm were measured by Infinite M200 PRO (TECAN Inc.), and EC₅₀ values of CDS-1, CDS-3, CDS-6, CDS-7, and CDS-8 with respect to the human CD73 protein were calculated. In calculation of the EC₅₀ values, the ordinate represents a difference in the measurement values of absorbance at 450 nm and 540 nm, and the abscissa represents an antibody concentration value.

[5] = biological target: T3, human CD73 protein (BPS Bioscience …); experiment: ELISA, human CD73 protein immobilised on plate, second run
Method: as §1, with “respectively. These purified antibodies were diluted using a reaction buffer obtained by mixing the same amount of PBS and Blocking One, and dilution was performed in 12 steps from 10 μg/mL to 56 pg/mL. The resultant was reacted at room temperature for 1 hour, and then washed three times with a wash solution. 20 μL/well of a human IgG-heavy and light chain cross-adsorbed antibody (Bethyl Laboratories Inc., A80-219P) which had been diluted 4000-fold with a reaction buffer was added thereto, and the resultant was reacted at room temperature for 1 hour. The resultant was washed with a wash solution three times, and 20 μL/well of TMB+substrate-chromogen (DAKO Ltd., 51599) was added thereto.” for “respectively.”

Row | Binder | EC50 (ng/mL), First; inhibition of enzymatic activity of human CD73 protein (adenosine from AMP, LC/MS) [1] [ng/mL] | EC50 (ng/mL), Second; inhibition of enzymatic activity of human CD73 protein (adenosine from AMP, LC/MS) [1] [ng/mL] | EC50 (ng/mL), First; inhibition of enzymatic activity of human CD73 in NCI-H1373 cells (adenosine from AMP, LC/MS) [2] [ng/mL] | EC50 (ng/mL), Second; inhibition of enzymatic activity of human CD73 in NCI-H1373 cells (adenosine from AMP, LC/MS) [2] [ng/mL] | EC50 (ng/mL), IFNγ; recovery of AMP-dependently suppressed human T cell functions [3] [ng/mL] | EC50 (ng/mL), Proliferation of T cells; recovery of AMP-dependently suppressed human T cell functions [3] [ng/mL] | EC50 [4] [µg/mL] | EC50 [5] [µg/mL]
1 | B1 | 16.8 | 9.2 | 785 | 579 | 5.8 | 23.2 | 0.0039 | 0.0088
2 | B2 |  | 19.4 |  | 455 |  |  |  | 0.0209
3 | B3 |  | 20.4 |  | 678 |  |  |  | 0.0196
